Assay results published in the domain aggregation screens of Martell et al. (2025).

Experiment: soluble fraction after stress (log2 fold change); higher = more stays soluble; pooled small domains, quantitative proteomics
Conditions: stress: pH 4
Outline: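 Custom libraries of small protein domains were pooled and measured with high-throughput quantitative proteomics after pH 4 stress. The read-out is the fold change in the amount of each domain that stays soluble after the acid stress, taken as a measure of aggregation propensity. Fold changes are on a log2 scale, and higher values mean more of the domain stayed soluble.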

| Sequence | soluble fraction (log2) |
| --- | --- |
| HMNDEFYAVVRESYAGYALVKPLDEDVGYDILSVSVKNLKVGDIIRLKVKNIKEIYPPEAEVLEVEVLQ | -1.59 |
| HMDYYASVDQVWRELGLAGPARRALIDDGLFKLSDLRKTSLAAVKELHGMGPNAIRILTTEMKKADLSFR | ≥ 0.43 |
| HMRSASFDIMSQKQSDATLGYERVYDTETNEVYKAYNGFTDDYDGERYKSISDNMYTKGISGYIEK | -0.151 |
| HMRDFLMDSTKNKLSKDQVQLSRIFLWFGNDFGSKAERLEFISRYSGMDFNQPKIDYLTYDWSLNQ | -0.207 |
| HMEINKLIELIGGYKALSEVLNVSKSAISNYKKRGSLPSYAIPIIVKELKSKGISIDLSEFT | -0.0727 |
| HMKALPSAEDVALARESGRVLSTVLQTRAETQQIDFHDDKGAVRSVTLPTTALRLLLDVLTEIGQGNAV | -0.161 |
| HMGADPTTWPEIDAFVGRVAVTATGLFPSGQVEIDGRRFEARLAFGVAEPGARVVVRRRTDFGLLVEKETR | -0.531 |
| HMIEMGNRIRTLRKRRVGSQSEFAEKLDVSVVTISRIENGMTKIDAELLIKMSEVLQVPVNIILGM | -1.7 |
| HMIVVMAADSSREDLDLVQGRIEARGLRAQISQGVERIVIGVLGSLPPDLKDEMELLPGVREVLVIS | -1.19 |
| HMSFISRMVVAVEDIALSTRPNSTPSGDKYVSKGTVLLMEKRENDWVEVRQPSSPLSGWAPKTSLLSV | -0.426 |
| HMGETYTIPDVRGYTLEDAMELPEIKENGFTIIEGRQIVDADVPVGQIISQTPEAESIAKSNVKEITVNIS | -0.367 |
| HMTPEPVTMYITSLTEFRSEPNTEAGIIKLLDAYEEVEMIESRGEWSKISYGDQIGYILSEFLTAENRT | -1.78 |
| HMVSYTLPTLHTGKNWYVDFTAYDPAEQKMKRKKYMLDGISKITERRKRAVDIIATVTARLRSGWNPWA | 0.0419 |
| HMDKEIKILKEKRLDDVQQAIRELSPQKRRVVEMKLYHNSTNQEVADKLAISVNTVKSLYTSALHDLRRIL | 0.109 |
| HMPLIPIAIELARHALPSLIGAIAGDKSEKVAKEVVDAALKTTGKTTPDEALHALQADPQLAHEYRLSLL | -0.466 |
| HMGAGLLEPEPLKIEIQETQERLQKLQKALERDTETADSKERIKRAIEAHKARISQLQGLIE | 0.0704 |
| HMKQFVVQYYGIDGEVINSVYKNGMSDLTSYEPEKIDGKNFKGWSLSEDSKKVIDENYRINSDVNLYAVYT | 0.15 |
| HMTVLDYNENVLSKVMNAAEINDSDKEAFIAFAKDYNSDDNLYLKKEELETAAGAWNARNVE | -0.552 |
| HMADLTEEQKTLFRLIRDLQPVSSKTLLENSGFTRSTQTRLLNGLIEKQIVIRTGNGPATRYSLR | -0.307 |
| HMKTKHISIAEGMSLYTRDRSPFYWGYLNIEGVIHKKSLKTDVVDEAIKLLSIWKNELLNSITK | -0.414 |
| HMLTRSASREELDQLLKRLRQNLKQKNFFWPPDKEKSLVLYLENLFSKFPLNSSDIRFLHGIIRTLSEK | -0.114 |
| HMNNGYSINEIAKLMKMTLKVVRRYVASGELKTTKTNNTYSISEEAFNEFKKYIEEGGDAKHAQEVADTFK | -0.554 |
| HMEYSYKLIDLLVDRFSEEGVDPEEAREYINLFHRFSQGLDPDKRDITKYSWDELYRTVNDKKDS | -0.344 |
| HMVDSVIGSVGRVTVDIDNVEALGQVKLGGMEWSARSTSGDPIPAGTEVRVDRVEGVKVFVTPV | -0.203 |
| HMTQSPLHWSHRPIDLSELLTYLDRDGAFVYASGHKAPFTEVVRGFEHLLNIRLGDPRDVKRSVLQR | -0.282 |

| Sequence | soluble fraction (log2) |
| --- | --- |
| HMATETELNLQLMRIIDELHTDHNTWGSRKITDYLRLQGYEINRKRIQRLMDVMDIQVVYPK | -0.00483 |
| HMAVEQLKSQIGGFLKANREQSFSAQNMADGLRMNSAAGYQDVVNAMNALVRDGEAVEKDGQFSYNVN | -0.0292 |
| HMQIIGEQNQKDFIALFGAILRMRNLLLSFDEFKGNELISERDLQDYLGRYQDLRDEWRNKRRER | -0.654 |
| HMRTAFPQLTERELEILDLIAAGRNNAQIASALYLAPKTVRNNVSNILAKLQATDRAEAIIRARDAGLGG | 0.273 |
| HMSAEKPVKSELFYKSMLNSFEQAVRFMIANGILEDFKSRIVAINNETNHQNWFNKQEFNAIIERF | -0.032 |
| HMKEATTSPLDGIPGIGSKRKKALLSHFGSARSVARADIPDLMRVDGISRQVAETIYGWFHN | 0.311 |
| HMPTQTEELRRRIVADVNAGEPGAKLGSERELAERYGTSRSSLRQVLAALQEAGLIDRVIGRSGGIFISH | 0.33 |
| HMSIGLEELVGSHGEAITDLRPAGQVSIAARRISAVSEGDFINKGDSVEVLSVEGYRVMVRKLET | -0.4 |
| HMPNSIKAPAYLHNIARIYDHVLIDVEKASSAYEKLIKKYPNHPLSINAKLYLENAFNRSDEELLNMIKEN | -0.624 |
| HMQKNFYQILGVDSKASPATINAAYERAKSRVIQSGLEDPDTMALLRDAWETLADPGDRAAYDESLAT | -0.0938 |
| HMLAERKERDKAELKELILDAAKKILLKNGQEGLSIRKIATTVEYSPATIYLYFKDKDEILHELMEMG | 0.151 |
| HMIQKTHPALEIVKEYFSSQAASEFEAERFFNYYTSNGWLIGGKTKMKDWQAAARNWILNTAK | -0.255 |
| HMAVKTEHGRIWKALPEGQDGYREDVPMFTSKSMYDGSAGIGIFLIRLYEATSDERWLKEAEEAAAHII | 0.308 |
| HMDPDAIVSKGQLGALNNAIGRFIAQGGSQTVVDKGIAKRNPNAKKPADLTNSQAESLEAAILKILNG | 0.121 |
| HMKRTFGEISPLPSGRYRARYRGPDGERYPAPVTFLSRMDAETWLSAQARKVSSGDWTPPVGVVA | 0.195 |
| HMSSEYARFFSGNYYEVLGVAKNASYDEIKAAWKKLVKEYHPDLHPQRQEEFTKIIQKINEAYEYFKKMH | -0.201 |
| HMVDERMVTYINSLDKGNTPFLNELEKEALANYVPIIRREMQSFLKVLLQIKAPLRILEVGTAVGFSTILM | -0.354 |
| HMLNPLLLPFVEAEDFQVKLEILAAMEGKVGEEDLDILYEALDLPKMTGNIEEQIHSIKQYIEMRK | -1.39 |
| HMSILDEAEFKKIESALLDFITNNIFTVKELLQASRGIKQDKFWKVFQFLQSERKVVVNELGYIEL | -0.513 |
| HMDIVKVYTTARAGETLASVAKRTGVDVARLAQWNDIPLKRAKQKLKTGKALALWVQREHASAYSNAPP | 0.22 |
| HMEVHLMPGTVLLREYESNEYRVTVTPEGFYDLNGKVFKSLSAVARHITGVNWSGPRFFGVEP | -0.604 |
| HMFDPAKQMQRIRKYAGMNRKEFSEWLNIPYRTMTDWELGNRTMPVYLLELIVYKVNHEIANA | -0.349 |
| HMRQQLAEILQKAVDNLPEAQRLVWLLRDKSDMTFKEIAEDLQLTEANVRVLLHRARLKLLAVINQYEE | -0.115 |
| HMPLLADLPNLLRKVLKQHPGRVVDVDLERGRQGREIYHVRVLQENGQVRGLFVDASTGELVS | 0.0524 |
| HMTMMTFGEKLQNARKGAGLSQEQLAEKLSVSRSAVAKWENDNGMPDIDNLKAIAQLLDVSIDYLLEN | -0.71 |

| Sequence | soluble fraction (log2) |
| --- | --- |
| HMSQTELIIVEEEMDGERLDAFLAEQVEQLSRSAVKNLINEGQVLVNGAKQKASYHVREGDEISIEIPEPQ | -0.455 |
| HMDLRYKVQYNFIDQGMMTKDELLKFSLNQDDVSKIAVFDNDSKQWKEIYAITEISEKLGIS | -1.57 |
| HMVAEPVYGKVTEGPLNVRSAPSTDSEKVDSFSTGKVLTILETLDGWYKVEEGYVSADYVTIIDAAEAASS | -0.538 |
| HMSRREEALIALAQRVARQVARTKQPVTLEPMPANERRVIHVALRDNPDVETRSSGEGDQRRVTVYPRQ | 0.202 |
| HMGTSMDPPVIIVSDGKLIQKGLEVSGLKKQWLYDLIDRKHMKISDIFLLTADKTGKYNLIKRS | -0.134 |
| HMTLTIEDQLRRLRARLGRGRAFLFSDVLVNPHDRTEIAVTLLALLELIKRREAQASQSYLFGPIEVAAA | -1.33 |
| HMLSLGQQIRNHVLSRIESGEWPEGSRIPSEAKLVELLGASRMTIHIALRDLSAEGVLLRKQGAGTFVAPR | -0.553 |
| HMYAVDTIHKGTITEMTDKGAVVSLGDNIDGFAPARQLVKEDGTTLKLGDTADFKVIEFSKATKRITLSH | 0.094 |
| HMNIETHIVPKLLAPIRLQEYGVGIFNNIPTKSALKKALKKQLITVDKTVATTATFIKGGETIELAYQ | -0.299 |
| HMSETTSRVLQLLGLLQARRVWTGQELADRLGVTGRSVRRDIERLRDLGYPVHASKGRDGGYQLGA | -0.222 |
| HMVTTDPIADMLTRIRNASSQKHKSVDVPASKEKLAIAQILFEEGYIKSFEEIKEENNQGVIRITLKYTEK | -0.0598 |
| HMGGSVYTVQKGDTLWSIAKEQLGSPLRYAEIYDLNKDVIEEAARGRGKKDSSNGHWLVVGTSLQIPEAT | -0.077 |
| HMKEFIPPVLDDVLKFFSGSLLPDWENQGRLFFSHYNSQGWRKGTGVQVTDWDSLANKWILDEKIKRDARS | -0.214 |
| HMKPPVQVIGKAVVTASSLNVRTGPGTGHGIITSLPRNTEVELLEQQGEWYKIRRGSTVGYVHGGYLKIN | -0.095 |
| HMEAKKVIAVHIIGEINKPGIVELEEGARVIDAIKKAGGTTEKADLAQINLAYILKDGQKIYIPNTEDN | -0.334 |
| HMTRYEQLAAQIRQQIEDNIWQSGDRLPSLRDTVKQSGLSLMTVLQSYQLLESQGWITARPQSGYYVAHR | -0.169 |
| HMEDNLVTYPNPTSDYIYVSKKVDLTVVNMLGDILIQKQNINVLDVTELTPGMYTIVIRYNNVTTNKRIIK | -0.335 |
| HMLPANGEAIYHYLASGAIKGVGPVTAQRIVDKFGEDTFDVLENNPLWLAEIKGITRKTAENIGAAFAAQF | -0.263 |
| HMTDYVPTIGTKISKDFGSKGYFEGEVVSGPHNVTVEGDNMVVWKVQYEDGDREEMTASEIAHWKA | 0.22 |
| HMALALSGVDLNRNRLTISWQTSKGVSYRVQRSSDLQSWTDVGAERLGNGNRLSHTQALNTESAFLRVII | -0.674 |
| HMKKILIVTNRSAGMVVYTIPEEGIRREFTPGETKKIPFEELEKLAYLSGGRTLMENFLKIVDTETTEELG | -1.44 |
| HMEQIGSIIKDIRKKNNLTQNEFASILGVTFQAVSKWENDKSIPDITILKDISNKFNVDLNYLISG | -0.48 |
| HMATVPNVVGLSEEKAKSRLANNGLNVSVTTEEVSDKSKDGIVSSQTSEGDTVKQGATITITVGKYVEK | -0.0691 |
| HMGAKVFTVPNLIGKYAIEAGIILKKEGLSEGEVKEENSDKYAAGQIIDQYPAADSPAKENDKINYVVSIG | -0.0221 |
| HMMTDEEFLRIAGYMKQRYGIDLGQKKVIMNGRLENHIKSGGWSSFHAFMNDLEKDSSGKLEKELVNLLTT | -0.367 |
